Data reported in patent publication US20250152742A1, “COMPOSITIONS AND METHODS FOR NEUROLOGICAL DISEASES” (Trames Bio, Inc., priority 2022, published 2025).
Residue numbers refer to the chain shown, from its start. Names and notes keep the numbering of the source.

Test system: engineered chimeric receptor SEQ ID NO: 33 and its mutants (human α7-nAChR ligand binding domain / human GlyRα1 ion pore domain) in Lenti-X 293T cells
Experiment: YFP fluorescence quenching anion reporter plate reader assay (percent quench, EC50)
Type: cell-based
Conditions: for YFP fluorescence quenching using CNL001 (percent quench): receptor named in row; for YFP fluorescence quenching using Varenicline, 3 nM var: ligand Varenicline 3 nM; for YFP fluorescence quenching using Varenicline, 30 nM var: ligand Varenicline 30 nM; for YFP fluorescence quenching using Varenicline, 300 nM var: ligand Varenicline 300 nM; for YFP fluorescence quenching using Varenicline, 500 nM var: ligand Varenicline 500 nM; for YFP fluorescence quenching using Varenicline, 1 uM var: ligand Varenicline 1 uM
Procedure, shortened: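 Percent quench compares mean YFP signal over the final 10 s with the 15 s baseline before ligand, added in iodide-containing extracellular solution (pH 7.2). Cells were LX293T carrying a YFP anion reporter, transiently transfected with the channel construct; plates were preincubated 30 min at 37 °C.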

[1] = 1 nM CNL001, first column so headed
[2] = 1 nM CNL001, second column so headed
[3] = 3 nM brd (TC-5619/Bradanicline)
[4] = 10 nM CNL001, first column so headed
[5] = 10 nM CNL001, second column so headed
[6] = 30 nM brd (TC-5619/Bradanicline)
[7] = 50 nM CNL001, first column so headed
[8] = 50 nM CNL001, second column so headed
[9] = 100 nM CNL001, first column so headed
[10] = 100 nM CNL001, second column so headed
[11] = 300 nM brd (TC-5619/Bradanicline)
[12] = 1 uM CNL001, first column so headed
[13] = 1 uM CNL001, second column so headed

B1: CODA965: engineered receptor: Y140C in SEQ ID NO: 33 (protein)
chain: MRCSPGGVWLALAASLLHVSLQGEFQRKLYKELVKNYNPLERPVANDSQPLTVYFSLSLLQIMDVDEKNQVLTTNIWLQMSWTDHYLQWNVSEYPGVKTVRFPDGQIWKPDILLYNSADERFDATFHTNVLVNSSGHCQCLPPGIFKSSCPMDLKNFPMDVQTCKLKFGSWSYGGWSLDLQMQEADISGYIPNGEWDLVGIPGKRSERFYECCKEPYPDVTFTVTMRRRMGYYLIQMYIPSLLIVILSWISFWINMDAAPARVGLGITTVLTMTTQSSGSRASLPKVSYVKAIDIWMAVCLLFVFSALLEYAAVNFVSRQHKELLRFRRKRRHHKSPMLNLFQEDEAGEGRFNFSAYGMGPACLQAKDGISVKGANNSNTTNPPPAPSKSPEEMRKLFIQRAKKIDKISRIGFPMAFLIFNMFYWIIYKIVRREDVHNQ
modifications: synthetic sequence of chimeric LGIC
[1]
  YFP fluorescence quenching using CNL001 (percent quench): −12.765%
[2]
  YFP fluorescence quenching using CNL001 (percent quench): −12.608%
[3]
  YFP fluorescence quenching using TC-5619/Bradanicline (percent quench): −18.49%
[4]
  YFP fluorescence quenching using CNL001 (percent quench): 68.134%
[5]
  YFP fluorescence quenching using CNL001 (percent quench): 71.394%
30 nM TC-6683
  YFP fluorescence quenching using TC-6683 (percent quench): −8.21%
[6]
  YFP fluorescence quenching using TC-5619/Bradanicline (percent quench): 22.66%
[7]
  YFP fluorescence quenching using CNL001 (percent quench): 80.298%
[8]
  YFP fluorescence quenching using CNL001 (percent quench): 82.159%
50 nM abt (ABT-126)
  YFP fluorescence quenching using ABT-126 (percent quench): −10.75%
[9]
  YFP fluorescence quenching using CNL001 (percent quench): 82.404%
[10]
  YFP fluorescence quenching using CNL001 (percent quench): 82.14%
100 nM CNL002
  YFP fluorescence quenching (percent quench): 43.24%
100 nM abt (ABT-126)
  YFP fluorescence quenching using ABT-126 (percent quench): −4.11%
100 nM azd0328
  YFP fluorescence quenching using AZD-0328 (percent quench): −16.69%
300 nM TC-6683
  YFP fluorescence quenching using TC-6683 (percent quench): −16.37%
300 nM abt (ABT-126)
  YFP fluorescence quenching using ABT-126 (percent quench): 18.93%
300 nM azd0328
  YFP fluorescence quenching using AZD-0328 (percent quench): 1.3%
[11]
  YFP fluorescence quenching using TC-5619/Bradanicline (percent quench): 38.02%
[12]
  YFP fluorescence quenching using CNL001 (percent quench): 82.34%
[13]
  YFP fluorescence quenching using CNL001 (percent quench): 80.649%
1 uM CNL002
  YFP fluorescence quenching (percent quench): 42.72%
1 uM abt (ABT-126)
  YFP fluorescence quenching using ABT-126 (percent quench): 52.64%
3 uM TC-6683
  YFP fluorescence quenching using TC-6683 (percent quench): −19.48%
10 uM ach (acetylcholine)
  YFP fluorescence quenching (percent quench): −21.71%
30 uM CNL002
  YFP fluorescence quenching (percent quench): 51.43%
30 uM TC-6683
  YFP fluorescence quenching using TC-6683 (percent quench): −24.32%
30 uM azd0328
  YFP fluorescence quenching using AZD-0328 (percent quench): 21.78%
100 uM TC-6683
  YFP fluorescence quenching using TC-6683 (percent quench): −24.99%
100 uM ach (acetylcholine)
  YFP fluorescence quenching (percent quench): 3.49%
1 mM ach (acetylcholine)
  YFP fluorescence quenching (percent quench): 63.34%
3 mM ach (acetylcholine)
  YFP fluorescence quenching (percent quench): 51.92%
Ligand Facinicline 30 nM
  YFP fluorescence quenching using Facinicline, 30 nM fac: −12.29
Ligand Facinicline 300 nM
  YFP fluorescence quenching using Facinicline, 300 nM fac: 20.11
Ligand Facinicline 30 uM
  YFP fluorescence quenching using Facinicline, 30 uM fac: 37.62
Ligand TC-6987 1 uM
  YFP fluorescence quenching using TC-6987, 1 uM tc6987: 2.73
Ligand TC-6987 10 uM
  YFP fluorescence quenching using TC-6987, 10 uM tc6987: 30.37
Ligand TC-6987 500 uM
  YFP fluorescence quenching using TC-6987, 500 uM tc6987: 33.07
First column
  YFP fluorescence quenching using Varenicline, 3 nM var: −17.716
  YFP fluorescence quenching using Varenicline, 30 nM var: −14.993
  YFP fluorescence quenching using Varenicline, 300 nM var: −11.731
  YFP fluorescence quenching using Varenicline, 500 nM var: −12.518
  YFP fluorescence quenching using Varenicline, 1 uM var: −13.385
Second column
  YFP fluorescence quenching using Varenicline, 3 nM var: −23.019
  YFP fluorescence quenching using Varenicline, 30 nM var: −12.182
  YFP fluorescence quenching using Varenicline, 300 nM var: −10.13
  YFP fluorescence quenching using Varenicline, 500 nM var: −15.043
  YFP fluorescence quenching using Varenicline, 1 uM var: −17.022

B2: CODA1047: engineered receptor: R101F, Y210V in SEQ ID NO: 33 (protein)
chain: B1 chain with R101F, C140Y, Y210V
modifications: synthetic sequence of chimeric LGIC
[1]
  YFP fluorescence quenching using CNL001 (percent quench): −7.82%
[2]
  YFP fluorescence quenching using CNL001 (percent quench): −8.382%
1 nM brd (TC-5619/Bradanicline)
  YFP fluorescence quenching using TC-5619/Bradanicline (percent quench): −5.548%
[3]
  YFP fluorescence quenching using TC-5619/Bradanicline (percent quench): −9.432%
[4]
  YFP fluorescence quenching using CNL001 (percent quench): −5.381%
[5]
  YFP fluorescence quenching using CNL001 (percent quench): −1.431%
10 nM brd (TC-5619/Bradanicline)
  YFP fluorescence quenching using TC-5619/Bradanicline (percent quench): −3.068%
30 nM TC-6683
  YFP fluorescence quenching using TC-6683 (percent quench): −24.195%
[6]
  YFP fluorescence quenching using TC-5619/Bradanicline (percent quench): 2.368%
[7]
  YFP fluorescence quenching using CNL001 (percent quench): −0.999%
[8]
  YFP fluorescence quenching using CNL001 (percent quench): 3.909%
50 nM abt (ABT-126)
  YFP fluorescence quenching using ABT-126 (percent quench): −14.1%
[9]
  YFP fluorescence quenching using CNL001 (percent quench): −0.823%
[10]
  YFP fluorescence quenching using CNL001 (percent quench): −5.885%
100 nM abt (ABT-126)
  YFP fluorescence quenching using ABT-126 (percent quench): −11.72%
100 nM brd (TC-5619/Bradanicline)
  YFP fluorescence quenching using TC-5619/Bradanicline (percent quench): 47.529%
300 nM TC-6683
  YFP fluorescence quenching using TC-6683 (percent quench): −24.234%
300 nM abt (ABT-126)
  YFP fluorescence quenching using ABT-126 (percent quench): −12.98%
[11]
  YFP fluorescence quenching using TC-5619/Bradanicline (percent quench): 74.413%
[12]
  YFP fluorescence quenching using CNL001 (percent quench): 1.638%
[13]
  YFP fluorescence quenching using CNL001 (percent quench): 3.483%
1 uM abt (ABT-126)
  YFP fluorescence quenching using ABT-126 (percent quench): −15.09%
3 uM TC-6683
  YFP fluorescence quenching using TC-6683 (percent quench): −21.291%
10 uM ach (acetylcholine)
  YFP fluorescence quenching (percent quench): −4.26%
30 uM TC-6683
  YFP fluorescence quenching using TC-6683 (percent quench): −16.363%
100 uM TC-6683
  YFP fluorescence quenching using TC-6683 (percent quench): −24.9%
100 uM ach (acetylcholine)
  YFP fluorescence quenching (percent quench): −13.05%
300 uM ach (acetylcholine)
  YFP fluorescence quenching (percent quench): −11.73%
500 uM ach (acetylcholine)
  YFP fluorescence quenching (percent quench): −10.75%
1 mM ach (acetylcholine)
  YFP fluorescence quenching (percent quench): −8.81%
3 mM ach (acetylcholine)
  YFP fluorescence quenching (percent quench): −6.77%
10 mM ach (acetylcholine)
  YFP fluorescence quenching (percent quench): −1.03%
First column
  YFP fluorescence quenching using Varenicline, 3 nM var: −3.035
  YFP fluorescence quenching using Varenicline, 30 nM var: −5.181
  YFP fluorescence quenching using Varenicline, 300 nM var: −2.748
  YFP fluorescence quenching using Varenicline, 500 nM var: −9.123
  YFP fluorescence quenching using Varenicline, 1 uM var: −6.702
Second column
  YFP fluorescence quenching using Varenicline, 3 nM var: −0.786
  YFP fluorescence quenching using Varenicline, 30 nM var: 0.669
  YFP fluorescence quenching using Varenicline, 300 nM var: −6.708
  YFP fluorescence quenching using Varenicline, 500 nM var: −9.869
  YFP fluorescence quenching using Varenicline, 1 uM var: −7.26
